Assay results from patent publication US20090191181.

T1: RB1 double mutant K791A/K824A
T1 chain: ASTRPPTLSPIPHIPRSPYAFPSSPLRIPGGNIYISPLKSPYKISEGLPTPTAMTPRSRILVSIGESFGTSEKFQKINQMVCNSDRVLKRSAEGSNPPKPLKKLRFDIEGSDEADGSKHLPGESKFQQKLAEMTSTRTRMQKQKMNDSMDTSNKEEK

T2: RB1 double mutant K814A/K824A
T2 chain: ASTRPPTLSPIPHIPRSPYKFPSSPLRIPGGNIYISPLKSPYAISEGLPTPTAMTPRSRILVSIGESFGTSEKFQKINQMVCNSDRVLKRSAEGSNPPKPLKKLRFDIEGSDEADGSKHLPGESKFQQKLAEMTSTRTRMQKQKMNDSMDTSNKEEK

T3: RB1 mutant K791A
T3 chain: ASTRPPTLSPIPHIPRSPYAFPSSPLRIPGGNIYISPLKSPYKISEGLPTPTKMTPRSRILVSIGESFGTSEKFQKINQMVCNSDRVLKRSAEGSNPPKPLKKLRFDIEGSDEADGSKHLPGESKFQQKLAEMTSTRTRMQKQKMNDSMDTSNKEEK

T4: RB1 mutant K814A
T4 chain: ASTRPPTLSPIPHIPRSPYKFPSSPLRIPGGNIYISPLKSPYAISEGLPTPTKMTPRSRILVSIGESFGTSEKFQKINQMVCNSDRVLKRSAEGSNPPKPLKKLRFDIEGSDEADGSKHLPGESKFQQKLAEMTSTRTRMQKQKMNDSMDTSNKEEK

T5: RB1 substrate domain mutant K824A
T5 chain: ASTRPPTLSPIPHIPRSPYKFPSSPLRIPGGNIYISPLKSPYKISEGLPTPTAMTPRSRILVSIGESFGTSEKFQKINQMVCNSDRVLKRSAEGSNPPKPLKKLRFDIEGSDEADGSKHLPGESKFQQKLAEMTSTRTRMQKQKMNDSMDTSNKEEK

T6: RB1 substrate domain mutant K889A
T6 chain: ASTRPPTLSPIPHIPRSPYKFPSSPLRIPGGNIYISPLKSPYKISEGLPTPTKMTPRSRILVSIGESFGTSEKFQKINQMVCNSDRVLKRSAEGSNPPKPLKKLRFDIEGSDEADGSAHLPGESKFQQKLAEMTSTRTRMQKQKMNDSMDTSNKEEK

T7: RB1 substrate domain mutant K896A
T7 chain: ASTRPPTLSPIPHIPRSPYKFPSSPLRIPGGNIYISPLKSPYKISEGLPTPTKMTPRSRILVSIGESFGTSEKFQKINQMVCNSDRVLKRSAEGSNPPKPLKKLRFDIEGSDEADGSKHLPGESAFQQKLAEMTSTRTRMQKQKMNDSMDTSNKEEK

T8: Recombinant C-terminal region of RB1 (codons 769-921)
T8 chain: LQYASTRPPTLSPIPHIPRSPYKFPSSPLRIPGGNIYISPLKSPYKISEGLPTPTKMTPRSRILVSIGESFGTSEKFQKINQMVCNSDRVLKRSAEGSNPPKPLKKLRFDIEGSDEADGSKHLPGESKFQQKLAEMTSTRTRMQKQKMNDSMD

T9: full-length recombinant RB protein (3108, QED Bioscience)
T9 chain: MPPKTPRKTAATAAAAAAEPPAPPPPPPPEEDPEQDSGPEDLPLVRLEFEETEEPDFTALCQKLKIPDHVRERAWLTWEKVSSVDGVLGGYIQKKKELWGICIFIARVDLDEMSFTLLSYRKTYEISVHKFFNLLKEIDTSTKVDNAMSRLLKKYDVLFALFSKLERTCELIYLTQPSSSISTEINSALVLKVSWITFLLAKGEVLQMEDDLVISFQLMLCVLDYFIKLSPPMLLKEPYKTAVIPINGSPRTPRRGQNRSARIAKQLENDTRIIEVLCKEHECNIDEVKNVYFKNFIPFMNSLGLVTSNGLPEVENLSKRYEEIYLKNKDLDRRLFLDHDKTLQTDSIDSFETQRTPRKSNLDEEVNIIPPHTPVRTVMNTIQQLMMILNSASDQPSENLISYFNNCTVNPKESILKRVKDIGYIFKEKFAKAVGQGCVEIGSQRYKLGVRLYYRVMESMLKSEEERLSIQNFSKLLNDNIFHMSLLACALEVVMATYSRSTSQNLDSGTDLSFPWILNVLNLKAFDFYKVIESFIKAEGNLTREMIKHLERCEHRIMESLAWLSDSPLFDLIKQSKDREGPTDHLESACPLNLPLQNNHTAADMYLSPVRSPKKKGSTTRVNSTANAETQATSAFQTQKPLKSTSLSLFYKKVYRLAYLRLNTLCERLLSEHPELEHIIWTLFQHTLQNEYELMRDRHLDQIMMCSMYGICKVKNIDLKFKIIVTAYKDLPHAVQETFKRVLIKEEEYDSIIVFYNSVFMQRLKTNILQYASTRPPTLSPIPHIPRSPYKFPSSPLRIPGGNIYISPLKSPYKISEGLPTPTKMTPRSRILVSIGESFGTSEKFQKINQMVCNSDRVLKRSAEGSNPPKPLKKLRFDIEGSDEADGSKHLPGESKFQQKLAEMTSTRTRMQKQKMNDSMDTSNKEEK


Key:
[1] = molecular target: T1, RB1 double mutant K791A/K824A
[2] = molecular target: T2, RB1 double mutant K814A/K824A
RB1 mutant K791A = molecular target: T3, RB1 mutant K791A
RB1 mutant K814A = molecular target: T4, RB1 mutant K814A
[3] = molecular target: T5, RB1 substrate domain mutant K824A
[4] = molecular target: T6, RB1 substrate domain mutant K889A
[5] = molecular target: T7, RB1 substrate domain mutant K896A
[6] = molecular target: T8, Recombinant C-terminal region of RB1 …
[7] = molecular target: Recombinant full-length GST-p53 (wild-type p53), P04637
[8] = molecular target: T9, full-length recombinant RB protein …

Recombinant full-length GST-p53 (wild-type p53), P04637, sequence (P04637 whole entry, looked up): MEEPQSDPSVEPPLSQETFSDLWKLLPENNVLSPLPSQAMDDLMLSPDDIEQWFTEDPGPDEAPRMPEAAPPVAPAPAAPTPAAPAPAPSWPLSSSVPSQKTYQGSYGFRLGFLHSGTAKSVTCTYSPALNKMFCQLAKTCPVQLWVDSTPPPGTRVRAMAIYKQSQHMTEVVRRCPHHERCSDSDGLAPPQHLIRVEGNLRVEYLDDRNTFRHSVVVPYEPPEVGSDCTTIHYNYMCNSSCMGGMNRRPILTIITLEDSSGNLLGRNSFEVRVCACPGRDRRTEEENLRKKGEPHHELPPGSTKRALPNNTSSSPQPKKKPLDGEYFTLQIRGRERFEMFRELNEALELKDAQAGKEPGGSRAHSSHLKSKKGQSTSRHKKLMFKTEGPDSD

| Protein | methylation by SMYD3 (fluorogram, liquid scintillation counter) [1] | methylation by SMYD3 (fluorogram, liquid scintillation counter) [2] | methylation by SMYD3 (fluorogram, liquid scintillation counter) (RB1 mutant K791A) | methylation by SMYD3 (fluorogram, liquid scintillation counter) (RB1 mutant K814A) | methylation by SMYD3 (autoradiography, liquid scintillation counter) [3] | methylation by SMYD3 (autoradiography, liquid scintillation counter) [4] | methylation by SMYD3 (autoradiography, liquid scintillation counter) [5] | incorporation of 3H-labeled methyl donor (liquid scintillation counter) [6] | methyltransferase (MTase) activity (recombinant histone H3) | methylation of substrate (in vitro MTase assay with 3H-labeled SAM, PAGE and autoradiography) [6] | methylation of substrate (in vitro MTase assay with 3H-labeled SAM, PAGE and autoradiography) [7] | methylation of substrate (in vitro MTase assay) [8] | methylation of substrate (in vitro MTase assay with 3H-labeled SAM, PAGE and autoradiography) (recombinant histone H3) |
| --- | --- | --- | --- | --- | --- | --- | --- | --- | --- | --- | --- | --- | --- |
| Recombinant SMYD3 protein (prepared in Sf9 cells, Baculovirus system) (protein) MEPLKVEKFATANRGNGLRAVTPLRPGELLFRSDPLAYTVCKGSRGVVCDRCLLGKEKLMRCSQCRVAKYCSAKCQKKAWPDHKRECKCLKSCKPRYPPDSVRLLGRVVFKLMDGAPSESEKLYSFYDLESNINKLTEDKKEGLRQLVMTFQHFMREEIQDASQLPPAFDLFEAFAKVICNSFTICNAEMQEVGVGLYPSISLLNHSCDPNCSIVFNGPHLLLRAVRDIEVGEELTICYLDMLMTSEERRKQLRDQYCFECDCFRCQTQDKDADMLTGDEQVWKEVQESLKKIEELKAHWKWEQVLAMCQAIISSNSERLPDINIYQLKVLDCAMDACINLGLLEEALFYGTRTMEPYRIFFPGSHPVRGVQVMKVGKLQLHQGMFPQAMKNLRLAFDIMRVTHGREHSLIEDLILLLEECDANIRAS | showed equivalent levels of methylation to the K824A protein | showed equivalent levels of methylation to the K824A protein | K791A and K814A, showed similar levels of methylation to wild type-RB1 | K791A and K814A, showed similar levels of methylation to wild type-RB1 | methylation of K824A was significantly decreased | the K889A and K896A mutants were methylated at similar levels by SMYD3 | the K889A and K896A mutants were methylated at similar levels by SMYD3 | four to six fold higher amount of 3H-labeled methyl donor in the presence of SMYD3 than the absence of SMYD3 | a dose-dependent increase of MTase activity on both substrates |  |  |  |  |
| Flag-tagged wild-type SMYD3 immunoprecipitated from 293T cells (p3XFLAG-CMV-SMYD3) (protein) MEPLKVEKFATANRGNGLRAVTPLRPGELLFRSDPLAYTVCKGSRGVVCDRCLLGKEKLMRCSQCRVAKYCSAKCQKKAWPDHKRECKCLKSCKPRYPPDSVRLLGRVVFKLMDGAPSESEKLYSFYDLESNINKLTEDKKEGLRQLVMTFQHFMREEIQDASQLPPAFDLFEAFAKVICNSFTICNAEMQEVGVGLYPSISLLNHSCDPNCSIVFNGPHLLLRAVRDIEVGEELTICYLDMLMTSEERRKQLRDQYCFECDCFRCQTQDKDADMLTGDEQVWKEVQESLKKIEELKAHWKWEQVLAMCQAIISSNSERLPDINIYQLKVLDCAMDACINLGLLEEALFYGTRTMEPYRIFFPGSHPVRGVQVMKVGKLQLHQGMFPQAMKNLRLAFDIMRVTHGREHSLIEDLILLLEECDANIRAS |  |  |  |  |  |  |  |  |  | bands corresponding to methylated RB1 were also detected | no bands corresponding to methylated p53 were detected | SMYD3 methylated full length of RB1 | bands corresponding methylated histone H3 |
